From the supplement of paper PMC10266784

B1: library; numbered along this chain (parent)
chain: MAAAAAAAAEQQSSNGPVKKSMREKAVERRSVNKEHNSNFKAGYIPIDEDRLHKTGLRGRKGNLAICVIILLFILAVINLIITLVIWAVIRIGPNGCDSMEFHESGLLRFKQVSDMGVIHPLYKSTVGGRRNENLVITGNNQPIVFQQGTTKLSVENNKTSITSDIGMQFFDPRTQNILFSTDYETHEFHLPSGVKSLNVQKASTERITSNATSDLNIKVDGRAIVRGNEGVFIMGKTIEFHMGGNMELKAENSIILNGSVMVSTTRLPSSSSGDQLGSGDWVRYKLCMCADGTLFKVQVTSQNMGCQISDNPCGNTH

Variants of: B1
Experiment: SGCB cell-surface expression functional score (HA stain, bin4 vs bin1, normalised to synonymous) (log10 ratio); higher = more cell-surface SGCB (functional)
Experimental: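 Deep mutational scan of full-length human SGCB (YFP-SGCB-HA, NNN codon sublibraries A-F) delivered by lentivirus at low MOI into ADG-HEK293 cells stably expressing SGCA, SGCD and SGCG. YFP-positive cells were stained for surface HA on unpermeabilized cells and FACS-sorted into bins. The functional score is log10(frequency in high bin 4 / frequency in low bin 1), normalised per chunk so that synonymous variants have mean 0 and SD 0.5. Scores are the median over codons and over duplicate biological replicates; scores below -0.5 are called non-functional. Scale: negative means deleterious.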

SGCB cell-surface expression functional score (log10): each site, then its substitutions
R60: F -0.05, N 0.1, D 0.39, W -0.101, L 0.11, C 0.47, Y -0.12, K 0.08, Q 0.38, S 0.18, H -0.21, V -0.09, G -0.33, T 0.01, E 0.4, P -0.19, A -0.28, I 0.5
N63: V -0.44, P 0.32, S -0.25, Q 0.11, A -0.08, Y 0.25, G 0.13, K 0.24, M -0.11, E -0.28, D -0.06, F 0.08, T 0.43, H 0.28, L 0.03, I -0.14, W 0.22, C -0.16, R 0.07
A76: E 0.02, H -0.07, M -0.23, K -0.81, G -0.2, L 0.08, C 0.13, D -0.4, F 0.33, I 0.22
L64: Q 0.03, C 0.26, D -0.4, R 0.07, H 0.16, S 0.31, M -1.4, G -0.2, N 0.28, K 0.15, Y 0.16, E -0.26, P -0.26, I -0.1, A -0.31, W -0.254, V 0.25, T 0.11, F 0.43
C67: N 0.19, K 0.29, Y 0.04, R 0.08, D 0.11, F -0.08, P 0.26, H 0.38, S 0.04, I 0.33, G 0.18, V 0.28, E 0.39, Q 0.4, A 0.57, W 0.43, L 0.25, T -0.03, M -0.01
I66: F -0.03, K 0.5, Q -0.15, H -0.2, R 0.43, C 0.65, T 0.03, Y 0.29, W 0.01, D 0, A -0.11, M 0.3, E 0.12, P -0.35, L -0.78, G 0, V 0.2, S 0.07, N 0.47
I69: E 0.15, H 0.03, S 0.09, F 0.52, P 0.36, A -0.17, G 0.2, D -0.11, K -0.04, V -0.05, Y 0.41, T -0.01, C 0.05, L 0.2, Q 0.03, N 0.62, M 0.22, R 0.11, W 0.3
F73: Q 0.6, V -0.23, D 0.36, E 0.42, R -0.59, G 0.22, P 0.07, H 0.54, L 0.03, I -0.11, M -0.01, K 0.54, A 0.13, N 0.47, T -0.22, C 0.34, S -0.15, Y 0.84
K61: S 0.07, T 0.03, H -0.27, N -0.39, R -0.23, V 0.07, F 0.7, P -0.2, Y 0.64, L 0.26, M -0.03, I 0.48, C 0.35, E -0.08, A -0.12, G 0.03, Q -0.08, W 0.05, D -0.36
L75: N -0.4, S 0.09, Y -0.25, D -0.31, Q -0.18, T 0.27, C -0.06, G -0.34, R -0.32, K 0.2, I 0.09, H 0.2, P 0, W 0.39, V -0.01, E -0.08, M 0.77, A -0.22, F 0.18
R58: V -0.04, T 0.24, W -0.26, Y 0.71
G59: E -0.2, T 0.25, Y 0.17, I -0.01, F 0.13, V 0.33, K 0.12, C 0.05, M 0.31, D 0.04, H 0.1, R -0.17, Q -0.24, P 0.12, N 0, S -0.13, A -0.59, L 0.09
G62: P 0.36, E 0.11, N -0.29, S 0.18, H 0.18, C 0.33, R 0.23, D 0.29, W -0.11, I 0.26, T -0.09, L 0.53, M 0.13, V -0.21, Y -0.05, A 0.02, K -0.29, Q 0.34, F 0.5
L72: Q -0.21, V 0.27, I 0.41, S -0.07, T 0.45, P -0.11, K -0.18, W 0.28, N -0.44, E -0.02, A -0.23, Y -0.04, D -0.14, G 0.44, F 0.07, R -0.09, H -0.05, M 0.13, C 0.42
L71: N 0.19, D -0.08, Q 0.12, P -0.04, M 0.01, H 0.06, T 0.07, I -0.45, K 0.36, G 0.23, Y -0.5, V 0.22, W 0.61, F -0.14, E 0.1, A 0.26, C -0.37, S 0.06, R -0.37
I70: A 0.41, N 0.07, W 1.07, L -0.1, D -0.14, R -0.16, M 0.77, G 0.35, P 0.16, E -0.22, V 0.53, K 0.19, C -0.3, F -0.2, Q 0.06, Y -0.14, H -0.21, T -0.22, S 0.36
A65: K 0.51, N 0.06, M -0.02, Q -0.13, T -0.01, S 0.01, F 0.21, I 0.15, Y 0.12, G -0.03, L 0.15, P -0.28, E -0.2, C 0.32, V 0.3, W 0.48, R -0.07, D 0.08, H -0.17
V68: R 0.06, A -0.01, H -0.35, S 0.36, E -0.1, P 0, D -0.25, T 0.29, M -0.35, K 0, Y -0.25, F 0.55, Q -0.15, W 0.12, L -0.04, N 0.03, G 0.24, I 0.05, C 0.91
I74: E 0.75, D -0.26, P -0.18, M -0.6, Q 0, V -0.01, H 0.05, G 0.2, F -0.25, K 0.07, Y -0.07, C 0.07, N 0.04, R -1.42, L 0.44, T -0.02, W 0.64, S -0.05, A 0
